According to article doi:10.1101/2021.05.05.442573, “Relief of ParB autoinhibition by parS DNA catalysis and ParB recycling by CTP hydrolysis promote bacterial centromere assembly” (bioRxiv, 2021):
Changes are numbered by the printed parent chain. Names and notes keep the numbering of the source.

B1: ParB(R105C, H133C), purified (natural protein, B. subtilis, UniProt P26497 1-282, looked up)
chain: MAKGLGKGINALFNQVDLSEETVEEIKIADLRPNPYQPRKHFDDEALAELKESVLQHGILQPLIVRKSLKGYDIVAGERRFRAAKLAGLDTVPAIVRELSEALMCEIALLENLQREDLSPLEEAQAYDSLLKCLDLTQEQLAKRLGKSRPHIANHLRLLTLPENIQQLIAEGTLSMGHGRTLLGLKNKNKLEPLVQKVIAEQLNVRQLEQLIQQLNQNVPRETKKKEPVKDAVLKERESYLQNYFGTTVNIKRQKKKGKIEIEFFSNEDLDRILELLSERES
notes: Purification as in Soh et al., 2019; source: E. coli BL21-Gold (DE3), untagged, purified (ammonium sulfate, heparin, HiTrap SP, Superdex 200)
B2: ParB(T22C), purified (natural protein, B. subtilis, UniProt P26497 1-282, looked up)
chain: B1 chain with T22C, C105R, C133H
notes: as for B1
B3: ParB(T22C, E78Q), purified (natural protein, B. subtilis, UniProt P26497 1-282, looked up)
chain: B1 chain with T22C, E78Q, C105R, C133H
notes: the combination is not spelled out for the purified protein; also called EQ mutant; source: E. coli BL21-Gold (DE3), untagged, purified (ammonium sulfate, heparin, HiTrap SP, Superdex 200)
B4: ParB(A102C, H133C), purified (natural protein, B. subtilis, UniProt P26497 1-282, looked up)
chain: B1 chain with A102C, C105R
notes: as for B1
B5: ParB(T22C, E111Q), purified (natural protein, B. subtilis, UniProt P26497 1-282, looked up)
chain: B1 chain with T22C, C105R, E111Q, C133H
notes: as for B3

Target: the molecule itself
Assay: cross-linking; in vitro BMOE cysteine cross-linking of purified ParB (10 uM monomer, 1 mM BMOE, 5 min RT; 150 mM NaCl, 50 mM Tris-HCl pH 7.5, 5 mM MgCl2); without ligand, with 1 mM CTP or CTPγS, with 1 uM 40 bp parS DNA, or with both; SDS-PAGE, Coomassie

Binding result, binds:
B1
B2
B3
B4
B5
